Reference: patent publication US6436654

What was measured:
Assay in all cases: cell-based or functional assay
human HIF-1α (human) = human HIF-1α (human) (UniProt Q16665)
GAL4/HIF 526-826 (human) = biological target: GAL4/HIF 526-826 (human)
GAL4/HIF 71-826 (human) = biological target: GAL4/HIF 71-826 (human)
[1] = biological target: GFP-HIF-1α (Aequeora victoria; human) [GFP: P42212]
GAL4/HIF 776-826 (human) = biological target: GAL4/HIF 776-826 (human)
GAL4/HIF 1-813 (human) = biological target: GAL4/HIF 1-813 (human)
GAL4/HIF 531-584 (human) = biological target: GAL4/HIF 531-584 (human)
GAL4/HIF 1-826 (human) = biological target: GAL4/HIF 1-826 (human)
GAL4/Arnt 128-774 = GAL4/Arnt 128-774 (UniProt P04386)
GAL4/Arnt 128-603 = GAL4/Arnt 128-603 (UniProt P04386)

human HIF-1α (human), sequence (Q16665 whole entry, the tested form may be a part): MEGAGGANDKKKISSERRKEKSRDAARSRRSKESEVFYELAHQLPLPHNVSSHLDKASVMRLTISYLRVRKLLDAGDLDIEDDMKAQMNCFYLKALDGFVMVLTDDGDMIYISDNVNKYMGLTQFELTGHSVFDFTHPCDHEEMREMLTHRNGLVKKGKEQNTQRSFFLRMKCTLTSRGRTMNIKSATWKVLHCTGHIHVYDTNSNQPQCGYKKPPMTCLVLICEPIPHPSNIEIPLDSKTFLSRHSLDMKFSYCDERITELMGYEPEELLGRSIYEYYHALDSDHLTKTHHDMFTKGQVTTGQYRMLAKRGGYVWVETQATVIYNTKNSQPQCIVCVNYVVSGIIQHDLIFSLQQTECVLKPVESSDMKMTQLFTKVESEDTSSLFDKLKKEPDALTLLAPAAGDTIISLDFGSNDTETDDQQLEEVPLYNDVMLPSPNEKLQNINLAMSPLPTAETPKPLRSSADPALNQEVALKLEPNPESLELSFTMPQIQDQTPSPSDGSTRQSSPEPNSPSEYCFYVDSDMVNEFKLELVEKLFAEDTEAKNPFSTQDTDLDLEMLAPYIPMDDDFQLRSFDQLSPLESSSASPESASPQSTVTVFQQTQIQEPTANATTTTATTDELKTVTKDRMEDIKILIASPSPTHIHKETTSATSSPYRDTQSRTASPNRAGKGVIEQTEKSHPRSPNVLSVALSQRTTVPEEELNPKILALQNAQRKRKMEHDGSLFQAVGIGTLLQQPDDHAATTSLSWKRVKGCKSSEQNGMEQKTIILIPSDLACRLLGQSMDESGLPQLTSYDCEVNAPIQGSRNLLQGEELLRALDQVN

CBP (full-length mouse CBP) (from UniProt P45481 1-2441)
pT81/HRE-luc reporter gene activity in COS7 cells coexpressing HIF-1α and Arnt, hypoxia (human HIF-1α (human)): 2 to 3 fold
GAL4-responsive reporter gene activity in COS7 cells (GAL4/HIF 526-826 (human)): 7 to 9 fold
GAL4-responsive luciferase activity in COS7 cells, hypoxia, against hypoxia without exogenous coactivators (GAL4/HIF 71-826 (human)): 30 fold
HRE-luciferase reporter gene activity in COS7 cells, hypoxia [1]: 3 fold
HRE-luciferase reporter gene activity in COS7 cells, hypoxia over normoxia [1]: 15 fold
GAL4-responsive reporter gene activity in COS7 cells (GAL4/HIF 776-826 (human)): 29 fold
GAL4-responsive reporter gene activity in COS7 cells, hypoxia (GAL4/HIF 1-813 (human)): 14 fold
GAL4-responsive reporter gene activity in COS7 cells, hypoxia (GAL4/HIF 531-584 (human)): 11 fold
GAL4-responsive luciferase reporter gene activity in COS7 cells, hypoxia (GAL4/HIF 1-826 (human)): 19 fold
GAL4-responsive luciferase reporter gene activity in COS7 cells, normoxia (GAL4/HIF 1-826 (human)): 2 to 3 fold
GAL4-responsive reporter gene activity in COS7 cells, hypoxia (GAL4/HIF 1-826 (human)): 8 to 10 fold

Ref-1 (from UniProt P27695 1-318) (enzyme)
GAL4-responsive reporter gene activity in COS7 cells, hypoxia, Ref-1 coexpressed with CBP and SRC-1 (GAL4/HIF 776-826 (human)): 53 fold
GAL4-responsive reporter gene activity in COS7 cells, hypoxia, Ref-1 coexpressed with CBP and SRC-1 (GAL4/HIF 531-584 (human)): 12 fold

TIF2 (from UniProt Q15596 1-1464)
pT81/HRE-luc reporter gene activity in COS7 cells coexpressing HIF-1α and Arnt, hypoxia over normoxia (human HIF-1α (human)): 12 fold

human HIF-1α (from UniProt Q16665 1-826)
GAL4-responsive reporter gene activity in COS7 cells, normoxia (GAL4/Arnt 128-774): 4 fold
GAL4-responsive reporter gene activity in COS7 cells, normoxia (GAL4/Arnt 128-603): 5 fold
